Laboratory results taken from publication PMC5756042, “Molecular Defects of the Disease-Causing Human Arrestin-1 C147F Mutant” (Investigative Ophthalmology & Visual Science, 2018).
Residue numbers refer to the chain shown, from its start. Numbers in names are those of the source. Blank lines part the entries; values can stand above or below the binder they belong to.

Biological target: T1, light-activated unphosphorylated rhodopsin (bovine, UniProt P02699 1-348)
T1 construct: source: purified from cow eyes; unphosphorylated; rhodopsin-containing membranes
T1 sequence (P02699 whole entry): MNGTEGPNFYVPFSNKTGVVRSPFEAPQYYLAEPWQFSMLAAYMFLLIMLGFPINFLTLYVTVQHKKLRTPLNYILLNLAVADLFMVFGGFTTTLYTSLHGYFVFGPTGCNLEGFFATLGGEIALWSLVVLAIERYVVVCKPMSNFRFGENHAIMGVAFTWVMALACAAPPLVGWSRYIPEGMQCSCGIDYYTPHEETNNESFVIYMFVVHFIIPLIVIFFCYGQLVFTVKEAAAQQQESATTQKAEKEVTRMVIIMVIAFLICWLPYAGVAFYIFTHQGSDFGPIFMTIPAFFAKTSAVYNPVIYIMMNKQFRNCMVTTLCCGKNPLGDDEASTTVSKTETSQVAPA
Assay: radioligand binding; direct binding assay: 1 nM radiolabelled arrestin-1 (50 fmol) with 0.3 μg P-Rh* or Rh* (0.22 μM) in 50 μL of 50 mM Tris-HCl pH 7.4, 100 mM potassium acetate, 1 mM EDTA, 1 mM dithiothreitol, 5 minutes at 37°C under room light; bound and free separated at 4°C on Sepharose 2B-CL; scintillation counting; nonspecific binding subtracted
Conditions: one partner purified

fold increase of Rh* binding against WT: > 2 fold
B1: human arrestin-1 C147F mutant (natural protein, UniProt P10523 1-405, looked up)
chain: MAASGKTSKSEPNHVIFKKISRDKSVTIYLGNRDYIDHVSQVQPVDGVVLVDPDLVKGKKVYVTLTCAFRYGQEDIDVIGLTFRRDLYFSRVQVYPPVGAASTPTKLQESLLKKLGSNTYPFLLTFPDYLPCSVMLQPAPQDSGKSFGVDFEVKAFATDSTDAEEDKIPKKSSVRLLIRKVQHAPLEMGPQPRAEAAWQFFMSDKPLHLAVSLNKEIYFHGEPIPVTVTVTNNTEKTVKKIKAFVEQVANVVLYSSDYYVKPVAMEEAQEKVPPNSTLTKTLTLLPLLANNRERRGIALDGKIKHEDTNLASSTIIKEGIDRTVLGILVSYQIKVKLTVSGFLGELTSSEVATEVPFRLMHPQPEDPAKESYQDANLVFEEFARHNLKDAGEAEEGKRDKNDVDE
modifications: labeled with 14C-Leu and 3H-Leu
notes: human arrestin-1 with the disease-causing C147F mutation (dominant retinitis pigmentosa in humans), transcription construct in pGEM2; The mutation occurs in human patients; here it was introduced into the transcription construct by PCR; also called CF; source: in vitro translated (rabbit reticulocyte lysate), radiolabelled

fold increase of Rh* binding against WT: > 2 fold
B2: human arrestin-1 C147I mutant (natural protein, UniProt P10523 1-405, looked up)
chain: B1 chain with F147I
modifications: labeled with 14C-Leu and 3H-Leu
notes: source: in vitro translated (rabbit reticulocyte lysate), radiolabelled

fold increase of Rh* binding against WT: > 2 fold
B3: human arrestin-1 C147L mutant (natural protein, UniProt P10523 1-405, looked up)
chain: B1 chain with F147L
modifications: labeled with 14C-Leu and 3H-Leu
notes: as for B2
